Target: RhiG-C-His (Bacillus subtilis ATCC6633)
Experiment: SEC

RhiG-C-His (enzyme)
stoichiometry N: 2

Source: paper PMC2819989
